The target of experiment [1] is T1, full-length human SIRPγ N→D on Expi-CHO cells (human, UniProt Q9P1W8 29-387).
T1 construct: the entry already carries the change (PENV to PEDV)
Kind of experiment: flow cytometry, Expi-CHO cells. How it is done:
(§1) Expi-CHO parental cells are transduced with lentiviruses containing either full-length wild-type human SIRPγ ([…]) or full-length human SIRPγ with amino acid point mutations (Table 64) and sorted to achieve matching expression levels. These cells are blocked with donkey IgG and incubated on ice with increasing concentrations of antibodies for 60 minutes, washed and stained with AF647-conjugated donkey F(ab′)₂ anti-human IgG antibodies. Stained cells are washed, fixed, and analyzed by flow cytometry. Median fluorescent intensity is determined and used as a measure of antibody binding.
On the technique in general: In flow cytometry, cells or beads pass a laser one at a time.

Experiment [2] addresses T2, full-length human SIRPγ EN→DD on Expi-CHO cells (human, UniProt Q9P1W8 29-387).
T2 construct: the entry already carries the change (PENV to PDDV)
T2 chain: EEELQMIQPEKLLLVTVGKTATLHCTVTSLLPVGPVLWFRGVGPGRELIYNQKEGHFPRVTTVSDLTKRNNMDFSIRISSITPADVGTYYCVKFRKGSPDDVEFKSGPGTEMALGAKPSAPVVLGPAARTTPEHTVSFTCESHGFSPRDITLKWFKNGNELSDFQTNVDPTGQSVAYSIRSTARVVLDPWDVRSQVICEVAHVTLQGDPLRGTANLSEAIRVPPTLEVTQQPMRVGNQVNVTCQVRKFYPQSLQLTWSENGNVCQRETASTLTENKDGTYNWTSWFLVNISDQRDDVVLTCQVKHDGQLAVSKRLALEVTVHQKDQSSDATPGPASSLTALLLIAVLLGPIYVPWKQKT
Kind of experiment: flow cytometry, Expi-CHO cells. How it is done: as §1

For experiment [3], the target named is T3, full-length human SIRPαV1 (NP_542970.1) on cells (human, UniProt P78324 31-504).
T3 construct: one molecule for CHO-K1 and Expi-CHO transfectants (NP_542970.1) and for endogenous V1 on U-937 cells and on CD14+ monocytes of V1/V1 donors; also called CHO-hSIRPαV1; αV1 WT
Put plainly: flow cytometry, U-937 cells (endogenous V1). How it is done: Antibody binding to human monocytic cell lines homozygous for the V1-allele (U-937) or the V2-allele (THP-1) of SIRPα is assessed. U-937 or THP-1 cells are blocked with donkey IgG and incubated on ice with increasing concentrations of antibodies for 60 minutes, washed and stained with AF647-conjugated donkey F(ab′)₂ anti-human IgG secondary reagent. Cells are washed, fixed, and analyzed by flow cytometry. Median fluorescent intensity is determined and used as a measure of antibody binding.

Experiment [4] has as its target T4, full-length human SIRPβ1 (NP_006056.2) on cells (human, UniProt O00241 30-398).
T4 construct: also called β1 WT
Put plainly: flow cytometry, U937 SIRPα-KO transfectants. On the procedure:
(§2) Antibody binding to cells expressing full-length human SIRPβ1 (NP_006056.2) and SIRPβL (NP_001129316.1) is evaluated by flow cytometry. SIRPβ1- or SIRPβL-expressing U937^{SIRPα KO} cells are blocked with donkey IgG and incubated on ice with increasing concentrations of antibodies for 60 minutes, washed and stained with AF647-conjugated donkey F(ab′)₂ anti-human IgG secondary reagent. Cells are washed, fixed, and analyzed by flow cytometry. Median fluorescent intensity is determined and used as a measure of antibody binding.

Experiment [5] concerns the target T5, recombinant human SIRPγ extracellular domain (ECD)/His protein (NP_061026.2) (human, UniProt Q9P1W8 29-360).
T5 construct: coated on ELISA plates; also called recombinant hSIRPγ; not shown: His-tag
Put plainly: ELISA, immobilised His-tagged human SIRPγ extracellular domain (average fluorescence). On the procedure: A biochemical ELISA-based assay is utilized to evaluate the binding of antibodies to SIRPγ. Black, 96-well flat-bottom immunoassay plates are coated with recombinant human SIRPγ extracellular domain (ECD)/His protein (NP_061026.2) diluted in DPBS and incubated overnight at 4° C. […] Plates are washed and serially titrated antibodies are added to respective wells for an incubation of about 1-2 h at RT. After the incubation, the plates are washed and HRPO-conjugated mouse anti-human IgG secondary reagent (Jackson Immuno Research) is added to each well and incubated for about 1-2 hours. Following the final plate washing, Amplex™ red substrate is added and incubated at RT in the dark for 15-30 minutes. Fluorescence is detected (λEx/λEm=530/590 nm) using EnVision Multilabel Plate Reader (Perkin Elmer). Average fluorescence is plotted for measuring the antibody binding.
(ELISA stands for enzyme-linked immunosorbent assay.)

Experiment [6] concerns the target T6, full-length cynomolgus SIRPβ1 (XP_005568598) on CHO cells, clone PA2 (cynomolgus monkey).
T6 construct: whole, on cells; also called SIRPβ1 XP_005568598 Clone PA2
Put plainly: flow cytometry, CHO cells. On the procedure:
(§3) Antibody binding to cells expressing full-length cynomolgus SIRPβ1 (XP_005568598) and SIRPβ1v3 (XP_005568593) is evaluated by flow cytometry. SIRPβ1- or SIRPβ1V3-expressing CHO cells are blocked with donkey IgG and incubated on ice with increasing concentrations of antibodies for 60 minutes, washed and stained with AF647-conjugated donkey F(ab′)₂ anti-human IgG secondary reagent. Cells are washed, fixed, and analyzed by flow cytometry. Median fluorescent intensity is determined and used as a measure of antibody binding.

Experiment [7] addresses T7, full-length cynomolgus SIRPβ1v3 (XP_005568593) on CHO cells, clone 1HC6 (cynomolgus monkey).
T7 construct: also called SIRPβ1v3 XP-005568593 Clone 1HC6
Kind of experiment: flow cytometry, CHO cells. On the procedure: as §3

In experiment [8] the target is T8, full-length human SIRPβL (NP_001129316.1) on cells (human, UniProt Q5TFQ8 30-398).
T8 construct: one molecule for U937 SIRPα-KO transfectants (NP_001129316.1) and Expi-CHO transfectants (Q5TFQ8); also called SIRPβ1v3; βL WT
Kind of experiment: flow cytometry, U937 SIRPα-KO transfectants. On the procedure:
as §2

T8 sequence (Q5TFQ8 30-398): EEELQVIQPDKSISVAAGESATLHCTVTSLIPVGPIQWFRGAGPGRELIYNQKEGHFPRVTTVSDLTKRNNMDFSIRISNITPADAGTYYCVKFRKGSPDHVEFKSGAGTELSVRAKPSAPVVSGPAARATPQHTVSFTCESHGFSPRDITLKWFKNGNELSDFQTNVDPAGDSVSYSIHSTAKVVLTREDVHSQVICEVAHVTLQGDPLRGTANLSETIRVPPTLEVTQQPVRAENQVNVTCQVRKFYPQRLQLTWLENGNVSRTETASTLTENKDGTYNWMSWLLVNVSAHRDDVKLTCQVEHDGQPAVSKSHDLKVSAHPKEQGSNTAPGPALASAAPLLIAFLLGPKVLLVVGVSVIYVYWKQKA
T1 sequence (Q9P1W8 29-387 N129D): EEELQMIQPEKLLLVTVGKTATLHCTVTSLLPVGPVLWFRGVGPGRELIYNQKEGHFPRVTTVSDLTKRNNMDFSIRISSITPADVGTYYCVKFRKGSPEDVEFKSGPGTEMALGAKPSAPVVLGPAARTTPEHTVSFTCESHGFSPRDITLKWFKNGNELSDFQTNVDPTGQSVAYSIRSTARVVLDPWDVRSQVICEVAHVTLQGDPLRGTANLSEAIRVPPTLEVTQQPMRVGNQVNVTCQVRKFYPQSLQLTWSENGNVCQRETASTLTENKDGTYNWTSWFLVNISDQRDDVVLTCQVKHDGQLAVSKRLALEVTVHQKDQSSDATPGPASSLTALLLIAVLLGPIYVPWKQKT
T5 sequence (Q9P1W8 29-360): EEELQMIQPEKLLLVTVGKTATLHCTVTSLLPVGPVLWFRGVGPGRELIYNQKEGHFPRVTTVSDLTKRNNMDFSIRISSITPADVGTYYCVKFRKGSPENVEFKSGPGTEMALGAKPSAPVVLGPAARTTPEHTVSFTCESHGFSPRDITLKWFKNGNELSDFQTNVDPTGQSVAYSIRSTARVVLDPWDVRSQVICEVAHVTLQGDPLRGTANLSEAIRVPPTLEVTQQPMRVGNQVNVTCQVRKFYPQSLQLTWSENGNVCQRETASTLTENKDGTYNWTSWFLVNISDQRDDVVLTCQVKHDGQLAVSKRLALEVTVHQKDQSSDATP
T3 sequence (P78324 31-504): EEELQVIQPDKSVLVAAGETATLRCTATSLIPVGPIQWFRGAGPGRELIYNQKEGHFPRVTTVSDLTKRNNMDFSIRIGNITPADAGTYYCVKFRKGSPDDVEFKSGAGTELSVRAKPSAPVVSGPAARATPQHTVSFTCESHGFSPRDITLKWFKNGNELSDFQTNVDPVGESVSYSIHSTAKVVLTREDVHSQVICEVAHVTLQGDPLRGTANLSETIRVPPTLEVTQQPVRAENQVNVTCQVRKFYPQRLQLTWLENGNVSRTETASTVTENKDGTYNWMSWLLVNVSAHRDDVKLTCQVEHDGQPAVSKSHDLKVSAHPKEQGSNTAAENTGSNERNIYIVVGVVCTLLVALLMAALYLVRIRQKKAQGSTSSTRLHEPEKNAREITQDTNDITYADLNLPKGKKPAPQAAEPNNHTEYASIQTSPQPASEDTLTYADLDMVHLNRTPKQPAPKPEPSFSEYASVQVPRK
T4 sequence (O00241 30-398): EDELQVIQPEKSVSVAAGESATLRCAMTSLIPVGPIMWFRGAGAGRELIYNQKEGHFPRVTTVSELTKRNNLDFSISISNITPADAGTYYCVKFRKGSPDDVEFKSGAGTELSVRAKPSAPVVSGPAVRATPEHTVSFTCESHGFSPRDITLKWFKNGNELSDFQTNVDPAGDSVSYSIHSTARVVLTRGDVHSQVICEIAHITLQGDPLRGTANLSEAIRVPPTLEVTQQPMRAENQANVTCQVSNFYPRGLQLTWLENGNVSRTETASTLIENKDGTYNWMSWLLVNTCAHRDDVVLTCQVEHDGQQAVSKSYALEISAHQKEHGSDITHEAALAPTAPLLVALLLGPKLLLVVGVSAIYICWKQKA

B1: Antibody D (antibody, human IgG1, kappa, L234A L235A, V domains shown)
VH: EVQLVESGGGLVQPGGSLRLSCAASGFTFSSFDMHWVRQPTGKGLEWVSTIGIAGDTYFPGSVKGRFTISRENAKNSLYLQMNSLRAGDTAVYYCARGGNWDDALDIWGQGTMVTVSS
VL: DIQMTQSPSSLSASVGDRVTITCRASQDINNYLAWFQQKPGKAPKSLIYTASSLQSGVPSKFSGSGSGTDFTLTISSLQPEDFATYYCQQYNTYPYTFGQGTKLEIKR
Broadly, the EC50 is the midpoint of the concentration-response curve. In the case of B1, the EC50 in experiment [1] is 0.3 nM; in experiment [2] it was 0.3 nM; in experiment [3], 0.5 nM; in experiment [4], 0.4 nM. In addition, the binding result in experiment [5] is “no binding (tested: about 67 nM)”.

B2: Antibody A (antibody, human IgG1, kappa, L234A L235A)
heavy: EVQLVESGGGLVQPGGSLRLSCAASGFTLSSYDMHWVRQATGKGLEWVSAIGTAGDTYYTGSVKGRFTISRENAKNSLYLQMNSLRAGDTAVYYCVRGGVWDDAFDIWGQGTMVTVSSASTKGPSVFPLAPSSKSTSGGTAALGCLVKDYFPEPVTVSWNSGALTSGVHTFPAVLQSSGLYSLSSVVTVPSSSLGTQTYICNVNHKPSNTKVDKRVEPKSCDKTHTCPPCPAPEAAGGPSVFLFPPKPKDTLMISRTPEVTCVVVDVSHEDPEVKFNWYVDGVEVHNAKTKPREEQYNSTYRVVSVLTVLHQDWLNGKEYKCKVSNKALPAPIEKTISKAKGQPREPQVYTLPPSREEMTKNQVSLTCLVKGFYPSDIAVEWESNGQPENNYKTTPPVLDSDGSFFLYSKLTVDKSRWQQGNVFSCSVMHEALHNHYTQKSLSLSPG
light: DIQMTQSPSSLSASVGDRVTITCRASQDINNYLAWFQQKPGKAPKSLIYTASSLHSGVPSKFSGSGSGTDFTLTISSLQPEDFATYYCQQYVSYPYTFGQGTKLEIKRTVAAPSVFIFPPSDEQLKSGTASVVCLLNNFYPREAKVQWKVDNALQSGNSQESVTEQDSKDSTYSLSSTLTLSKADYEKHKVYACEVTHQGLSSPVTKSFNRGEC
Take B2: the EC50 was found to be 0.7 nM in experiment [6], 0.4 nM in experiment [1], 0.6 nM in experiment [2] and 0.2 nM in experiment [4]. Moreover, the binding result in experiment [5] is “no binding (tested: about 67 nM)”.

B3: Antibody A10 (antibody, human IgG1, kappa, L234A L235A)
heavy: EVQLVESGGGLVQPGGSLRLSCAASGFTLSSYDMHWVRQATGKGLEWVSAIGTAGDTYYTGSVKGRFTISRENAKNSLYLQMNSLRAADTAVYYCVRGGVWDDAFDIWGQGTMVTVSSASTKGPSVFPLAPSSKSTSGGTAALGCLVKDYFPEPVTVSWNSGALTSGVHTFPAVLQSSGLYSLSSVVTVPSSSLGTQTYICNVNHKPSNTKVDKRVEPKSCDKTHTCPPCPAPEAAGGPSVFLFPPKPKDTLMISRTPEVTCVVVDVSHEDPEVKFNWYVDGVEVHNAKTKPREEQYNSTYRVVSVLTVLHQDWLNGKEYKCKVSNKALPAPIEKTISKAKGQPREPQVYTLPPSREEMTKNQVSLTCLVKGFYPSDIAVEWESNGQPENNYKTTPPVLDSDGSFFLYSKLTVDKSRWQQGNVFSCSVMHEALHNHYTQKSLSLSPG
light: DIQMTQSPSSLSASVGDRVTITCRASQDINNYLAWFQQKPGKAPKSLIYTASSLHSGVPSKFSGSGSGTDFTLTISSLQPEDFATYYCQQYVSYPYTFGQGTKLEIKRTVAAPSVFIFPPSDEQLKSGTASVVCLLNNFYPREAKVQWKVDNALQSGNSQESVTEQDSKDSTYSLSSTLTLSKADYEKHKVYACEVTHQGLSSPVTKSFNRGEC
Take B3: the EC50 was determined as 0.6 nM in experiment [6], 0.5 nM in experiment [1], 0.7 nM in experiment [2] and 0.2 nM in experiment [4].

B4: Antibody C (antibody, human IgG1, kappa, L234A L235A, V domains shown)
VH: EVQLVESGGGLVQPGGSLRLSCAASGFTFSSYDMHWVRQATGKGLEWVSVIGIAGDTYYPGSVKGRFTISRENAKNSLYLQMNSLRVGDTAVYYCARGGSWDDAFDIWGQGTMVTVSS
VL: DIQMTQSPSSLSASIGDKVTITCRASQDINNYLAWFQQKPGKAPKSLIYTASSLQSGVPSKFSGSGSGTDFTLTISSLQPEDFATYYCQQYVSYPYTFGQGTKLEIKR
For the molecule B4, the EC50 in experiment [3] is 0.6 nM; in experiment [4], 0.5 nM.

B5: Antibody E (antibody, human IgG1, kappa, L234A L235A)
heavy: not shown
light: DIVMTQSPLSLPVTPGEPASISCKSSQSLLYSNGYNYLDWYLQRPGQSPQLLIYLGSNRASGVPDRFSGSGSGTDFTLKISRVEAEDVGVFYCMQALQTPLTFGGGTKVEIKRTVAAPSVFIFPPSDEQLKSGTASVVCLLNNFYPREAKVQWKVDNALQSGNSQESVTEQDSKDSTYSLSSTLTLSKADYEKHKVYACEVTHQGLSSPVTKSFNRGEC
Turning to B5, the EC50 in experiment [7] is 0.8 nM; in experiment [3], 0.5 nM; in experiment [8], 0.3 nM. Further, in experiment [5], the binding result is reported as “no binding (tested: about 67 nM)”.

B6: Antibody E22 (antibody, human IgG1, kappa, L234A L235A, V domains shown)
VH: QVQLQESGPGLVKPSETLSLTCTVSGGSIRDYYWSWIRQPPGKGLEWIGFIYYNGRTFYQSSLKSRVTISLDTSKNQFSLKMTSVTAADTAVYYCARVRAYSGIGLDGTDVWGQGTTVTVSS
VL: DIVMTQSPLSLPVTPGEPASISCRSSQSLLYSTGYTYLDWYLQRPGQSPQLLIYGGSSRASGVPDRFSGSGSGTDFTLKISRVEAEDVGVFYCGQALQTPLTFGQGTKVEIKR
Consider B6, for which the values for the concentration giving a half-maximal response (EC50) in experiment [7] and in experiment [8] were 1 nM and 0.6 nM, respectively.

B7: Antibody B (antibody, human IgG1, kappa, L234A L235A, V domains shown)
VH: QVQLVQSGAEVKKPGASVKVSCKASGYTFTGNYMHWVRQAPGQGLEWMGWINPNSGGTNYAQKFQGRVTMTRDTSISTAYMELSRLRSDDTAVYYCVSGSGWYENYYYYGMDVWGQGTTVTVSS
VL: DIQMTQSPSSVSASVGDRVTITCRASQGISSWLAWYQQKPGKAPKLLIYAESSLQSGVPSRFSGSGSGTDFTLTISSLQPEDFATYYCQQANSFPLTFGGGTKVEIKR
Turning to B7, the concentration giving a half-maximal response (EC50) is 4.8 nM in experiment [1], 5.3 nM in experiment [2] and 21.1 nM in experiment [3]. In addition, the binding result in experiment [5] is recorded as “no binding (tested: about 67 nM)”.

B8: Anti-SIRPα antibody KWAR23 (antibody, V domains shown)
VH: EVQLQQSGAELVKPGASVKLSCTASGFNIKDYYIHWVQQRTEQGLEWIGRIDPEDGETKYAPKFQDKATITADTSSNTAYLHLSSLTSEDTAVYYCARWGAYWGQGTLVTVSS
VL: QIVLTQSPAIMSASPGEKVTLTCSASSSVSSSYLYWYQQKPGSSPKLWIYSTSNLASGVPARFSGSGSGTSYSLTISSMEAEDAASYFCHQWSSYPRTFGAGTKLELK
Regarding B8, the half-maximal effective concentration (EC50) turned out to be 0.2 nM in experiment [6]; 0.4 nM in experiment [7]; 0.3 nM in experiment [1]; 0.3 nM in experiment [2]; 0.5 nM in experiment [3]; 0.2 nM in experiment [4]. The EC50 in experiment [8] was 0.2 nM.

The values above are taken from US20230012273A1 (Boehringer Ingelheim, published 2023).
